Test results reported in patent publication US7038112B2, “Fatty acid elongases” (Miami University, priority 1997, dated 2006).
Where two headings read alike, the source gives them in different places.

Key:
[1] = assay type: biochemical, Saccharomyces cerevisiae; settings: for (%) 20:1 acyl CoA / (%) 22:1 acyl CoA / (%) 24:1 acyl CoA / (%) 26:1 acyl CoA / (%) Total / Rate, 20:1 acyl CoA / Rate, 22:1 acyl CoA / Rate, 24:1 acyl CoA / Rate, 26:1 acyl CoA / Rate, Total: second experiment
Method: (§1) Transformed yeast cells were grown in the presence of either glucose or galactose (2% w/v) as described in Example 1. Cells were harvested by centrifugation at 5000×g for 10 min and washed with 10 ml ice cold isolation buffer (IB), which contains 80 mM Hepes-KOH, pH 7.2, 5 mM EGTA, 5 mM EDTA, 10 mM KC1, 320 mM sucrose and 2 mM DTT). Cells were then resuspended in enough IB to fill a 1.7 ml tube containing 700 μl of 0.5 μm glass beads and yeast microsomes were isolated from the cells essentially as described in Tillman, T. and Bell, R., J. Biol. Chem. 261:9144–9149 (1986). The microsomal membrane pellet was recovered by centrifugation at 252,000×g for 60 min. The pellet was rinsed by resuspending in 40 ml fresh IB and again recovered by centrifugation at 252000×g for 60 min. Microsomal pellets were resuspended in a minimal volume of IB, and the protein concentration adjusted to 2.5 μg μl^−1 by addition of IB containing 15% glycerol. Microsomes were frozen on dry ice and stored at −80° C. The protein concentration in microsomes was determined by the Bradford method (Bradford, 1976).
(§2) Fatty acid elongase activity was measured essentially as described in Hlousek-Radojcic, A. et al., Plant J. 8:803–809 (1995). Briefly, the standard elongation reaction mix contained 80 mM Hepes-KOH, pH 7.2, 20 mM MgCl2, 500 μM NADPH, 1 mM ATP, 100 μM malonyl-CoA, 10 μM CoA-SH and 15 μM radioactive acyl-CoA substrate. The radiolabeled substrate was either [1^−14C]18:1-CoA (50 uCi μmol^−1), [1^−14C]18:0-CoA (55 uCi μmol^−1), or [1^−14C]16:0-CoA (54 uCi μmol^−1). The reaction was initiated by the addition of yeast microsomes (5 μg protein) and the mixture incubated at 30° C. for the indicated period of time. The final reaction volume was 25 μl.
(§3) Methyl esters of the acyl-CoA elongation products were prepared as described in Example 1. Methyl esters were separated on reversed phase silica gel KC18 TLC plates (Whatman, […] thick), quantified by phosphorimaging, and analyzed on by ImageQuant software (Molecular Dynamics, Inc., Sunnyvale, Calif.). The detection limit for each product is about 0.001 nanomoles per min. per mg microsomal protein, depending on the phosphorimage exposure time.
(§4) Yeast cultures containing full-length EL1 in λYES and full-length EL2 in pYEUra3 were grown in the presence of galactose or glucose as described in Example 2. Microsomes were then prepared from each of the cultures and fatty acid elongation assays were carried out as described in Example 2.
(§5) In the first experiment, microsomes were prepared from galactose-induced cultures of EL1, EL2 and FAE1, and incubated with either [1-^14C] 18:0 acyl-CoA or [1-^14C] 18:1 acyl-CoA as substrate. The amounts of various reaction products synthesized after 30 minutes (min) were determined as described in Example 2.
(§6) In a second experiment, microsomes were prepared from galactose-induced and from glucose-repressed yeast cultures containing EL1 or EL2 coding sequences. The microsomal preparations were incubated with either 18:0 acyl-CoA or 18:1 acyl-CoA as substrate and the fatty acid reaction products determined as described above.

[2] = In vitro fatty acid elongation assay with yeast microsomes, 18:0 acyl-CoA substrate; assay type: biochemical, Saccharomyces cerevisiae; settings: for (%) 20:0 acyl CoA / (%) 22:0 acyl CoA / (%) 24:0 acyl CoA / (%) 26:0 acyl CoA / (%) Total / Rate, 20:0 acyl CoA / Rate, 22:0 acyl CoA / Rate, 24:0 acyl CoA / Rate, 26:0 acyl CoA / Rate, Total: second experiment
Method: as §1, §2, §3, §4, §5
as §6, with “above. […]” for “above.”

[3] = 18:1-CoA substrate, +Galactose (induced)
[4] = 18:1-CoA substrate, +Glucose (uninduced)
[5] = 18:1-CoA substrate, galactose-induced, 30 min, first experiment
[6] = 18:0-CoA substrate, +Galactose (induced)
[7] = 18:0-CoA substrate, +Glucose (uninduced)
[8] = 18:0-CoA substrate, galactose-induced, 30 min, first experiment
[9] = +Gal, standard reaction mix, average of two experiments
[10] = +Glu, standard reaction mix, one experiment
[11] = galactose-induced, −A&C (ATP and Coenzyme A omitted), average of two experiments
[12] = galactose-induced, −ATP, average of two experiments
[13] = galactose-induced, −CoA, average of two experiments

B1: EL2: Arabidopsis β-keto acyl synthase gene product (SEQ ID NO:4) expressed in yeast microsomes (protein, listed as Arabidopsis thaliana)
chain: MDYPMKKVKIFFNYLMAHRFKLCFLPLMVAIAVEASRLSTQDLQNFYLYLQNNHTSLTMFFLYLALGSTLYLMTRPKPVYLVDFSCYLPPSHLKASTQRIMQHVRLVREAGAWKQESDYLMDFCEKILERSGLGQETYVPEGLQTLPLQQNLAVSRIETEEVIIGAVDNLFRNTGISPSDIGILVVNSSTFNPTPSLSSILVNKFKLRDNIKSLNLGGMGCSAGVIAIDAAKSLLQVHRNTYALVVSTENITQNLYMGNNKSMLVTNCLFRIGGAAILLSNRSIDRKRAKYELVHTVRVHTGADDRSYECATQEEDEDGIVGVSLSKNLPMVAARTLKINIATLGPLVLPISEKFHFFVRFVKKKFLNPKLKHYIPDFKLAFEHFCIHAGGRALIDEMEKNLHLTPLDVEASRMTLHRFGNTSSSSIWYELAYTEAKGRMTKGDRIWQIALGSGFKCNSSVWVALRNVKPSTNNPWEQCLHKYPVEIDIDLKE
increase in 18:1 CoA elongation, microsomes from induced vs uninduced cells [1]: ~2 fold
(%) 20:1 acyl CoA [1, 3]: 100.0%
(%) 22:1 acyl CoA [1, 3]: 0.0%
(%) 24:1 acyl CoA [1, 3]: 0.0%
(%) 26:1 acyl CoA [1, 3]: 0.0%
(%) Total [1, 3]: 100.0%
Rate, 20:1 acyl CoA [1, 3]: 0.089 Nanomoles/minute/mg of microsomal protein
Rate, 22:1 acyl CoA [1, 3]: 0.000 Nanomoles/minute/mg of microsomal protein
Rate, 24:1 acyl CoA [1, 3]: 0.000 Nanomoles/minute/mg of microsomal protein
Rate, 26:1 acyl CoA [1, 3]: 0.000 Nanomoles/minute/mg of microsomal protein
Rate, Total [1, 3]: 0.089 Nanomoles/minute/mg of microsomal protein
(%) 20:1 acyl CoA [1, 4]: 100.0%
(%) 22:1 acyl CoA [1, 4]: 0.0%
(%) 24:1 acyl CoA [1, 4]: 0.0%
(%) 26:1 acyl CoA [1, 4]: 0.0%
(%) Total [1, 4]: 100.0%
Rate, 20:1 acyl CoA [1, 4]: 0.043 Nanomoles/minute/mg of microsomal protein
Rate, 22:1 acyl CoA [1, 4]: 0.000 Nanomoles/minute/mg of microsomal protein
Rate, 24:1 acyl CoA [1, 4]: 0.000 Nanomoles/minute/mg of microsomal protein
Rate, 26:1 acyl CoA [1, 4]: 0.000 Nanomoles/minute/mg of microsomal protein
Rate, Total [1, 4]: 0.043 Nanomoles/minute/mg of microsomal protein
(%) 20:1 acyl-CoA product [1, 5]: 84.1%
(%) 22:1 acyl-CoA product [1, 5]: 15.9%
(%) 24:1 acyl-CoA product [1, 5]: 0.0%
(%) 26:1 acyl-CoA product [1, 5]: 0.0%
(%) Total acyl-CoA products [1, 5]: 100.0%
Rate, 20:1 acyl-CoA product [1, 5]: 0.091 Nanomoles/minute/mg of microsomal protein
Rate, 22:1 acyl-CoA product [1, 5]: 0.017 Nanomoles/minute/mg of microsomal protein
Rate, 24:1 acyl-CoA product [1, 5]: 0.0 Nanomoles/minute/mg of microsomal protein
Rate, 26:1 acyl-CoA product [1, 5]: 0.0 Nanomoles/minute/mg of microsomal protein
Rate, Total acyl-CoA products [1, 5]: 0.108 Nanomoles/minute/mg of microsomal protein
(%) 20:0 acyl CoA [2, 6]: 43.1%
(%) 22:0 acyl CoA [2, 6]: 17.8%
(%) 24:0 acyl CoA [2, 6]: 19.1%
(%) 26:0 acyl CoA [2, 6]: 20.0%
(%) Total [2, 6]: 100.0%
Rate, 20:0 acyl CoA [2, 6]: 0.107 Nanomoles/minute/mg of microsomal protein
Rate, 22:0 acyl CoA [2, 6]: 0.044 Nanomoles/minute/mg of microsomal protein
Rate, 24:0 acyl CoA [2, 6]: 0.048 Nanomoles/minute/mg of microsomal protein
Rate, 26:0 acyl CoA [2, 6]: 0.050 Nanomoles/minute/mg of microsomal protein
Rate, Total [2, 6]: 0.249 Nanomoles/minute/mg of microsomal protein
(%) 20:0 acyl CoA [2, 7]: 81.3%
(%) 22:0 acyl CoA [2, 7]: 5.1%
(%) 24:0 acyl CoA [2, 7]: 13.6%
(%) 26:0 acyl CoA [2, 7]: 0.0%
(%) Total [2, 7]: 100.0%
Rate, 20:0 acyl CoA [2, 7]: 0.030 Nanomoles/minute/mg of microsomal protein
Rate, 22:0 acyl CoA [2, 7]: 0.002 Nanomoles/minute/mg of microsomal protein
Rate, 24:0 acyl CoA [2, 7]: 0.005 Nanomoles/minute/mg of microsomal protein
Rate, 26:0 acyl CoA [2, 7]: 0.000 Nanomoles/minute/mg of microsomal protein
Rate, Total [2, 7]: 0.037 Nanomoles/minute/mg of microsomal protein
effect of omission of ATP and/or CoA on overall amounts of VLCFAs synthesized ([2]; 18:0-CoA substrate, galactose-induced): does not have a significant effect
(%) 20:0 acyl-CoA product [2, 8]: 41.8%
(%) 22:0 acyl-CoA product [2, 8]: 20.7%
(%) 24:0 acyl-CoA product [2, 8]: 20.3%
(%) 26:0 acyl-CoA product [2, 8]: 17.2%
(%) Total acyl-CoA products [2, 8]: 100.0%
Rate, 20:0 acyl-CoA product [2, 8]: 0.108 Nanomoles/minute/mg of microsomal protein
Rate, 22:0 acyl-CoA product [2, 8]: 0.053 Nanomoles/minute/mg of microsomal protein
Rate, 24:0 acyl-CoA product [2, 8]: 0.052 Nanomoles/minute/mg of microsomal protein
Rate, 26:0 acyl-CoA product [2, 8]: 0.044 Nanomoles/minute/mg of microsomal protein
Rate, Total acyl-CoA products [2, 8]: 0.258 Nanomoles/minute/mg of microsomal protein
20:0 product as a percent of total products formed [2, 9]: 47.1%
22:0 product as a percent of total products formed [2, 9]: 19.1%
24:0 product as a percent of total products formed [2, 9]: 19.4%
26:0 product as a percent of total products formed [2, 9]: 14.5%
Total products as a percent of total products formed [2, 9]: 100.0%
20:0 product as a percent of total products formed [2, 10]: 54.5%
22:0 product as a percent of total products formed [2, 10]: 17.1%
24:0 product as a percent of total products formed [2, 10]: 5.8%
26:0 product as a percent of total products formed [2, 10]: 22.6%
Total products as a percent of total products formed [2, 10]: 100.0%
increase in overall elongase activity on induction with galactose, 18:0 acyl CoA substrate ([2]; galactose-induced vs glucose): ~7 fold
20:0 product as a percent of total products formed [2, 11]: 38.0%
22:0 product as a percent of total products formed [2, 11]: 15.9%
24:0 product as a percent of total products formed [2, 11]: 18.4%
26:0 product as a percent of total products formed [2, 11]: 27.8%
Total products as a percent of total products formed [2, 11]: 100.0%
20:0 product as a percent of total products formed [2, 12]: 34.1%
22:0 product as a percent of total products formed [2, 12]: 16.4%
24:0 product as a percent of total products formed [2, 12]: 20.8%
26:0 product as a percent of total products formed [2, 12]: 28.9%
Total products as a percent of total products formed [2, 12]: 100.0%
20:0 product as a percent of total products formed [2, 13]: 45.3%
22:0 product as a percent of total products formed [2, 13]: 19.2%
24:0 product as a percent of total products formed [2, 13]: 19.9%
26:0 product as a percent of total products formed [2, 13]: 15.8%
Total products as a percent of total products formed [2, 13]: 100.0%
18:0-CoA elongation activity, +Glu ([2]; microsomes from glucose-grown cultures, standard reaction mix): .033 nanomoles/minute/mg of microsomal protein
